Experimental data published in patent publication US20260275312, “CRISPR NUCLEASE POLYPEPTIDES AND GENE EDITING SYSTEMS COMPRISING SUCH” (ARBOR BIOTECHNOLOGIES, INC., published 2026).

Assays:
Nuclease W E715R = molecular target: T1, Nuclease W E715R (synthetic construct, E715R); test: cell_activity; HEK293T; PAM AAA; conditions: tags: N-term SV40 NLS, XTEN linker + C-term nucleoplasmin NLS
T1 chain: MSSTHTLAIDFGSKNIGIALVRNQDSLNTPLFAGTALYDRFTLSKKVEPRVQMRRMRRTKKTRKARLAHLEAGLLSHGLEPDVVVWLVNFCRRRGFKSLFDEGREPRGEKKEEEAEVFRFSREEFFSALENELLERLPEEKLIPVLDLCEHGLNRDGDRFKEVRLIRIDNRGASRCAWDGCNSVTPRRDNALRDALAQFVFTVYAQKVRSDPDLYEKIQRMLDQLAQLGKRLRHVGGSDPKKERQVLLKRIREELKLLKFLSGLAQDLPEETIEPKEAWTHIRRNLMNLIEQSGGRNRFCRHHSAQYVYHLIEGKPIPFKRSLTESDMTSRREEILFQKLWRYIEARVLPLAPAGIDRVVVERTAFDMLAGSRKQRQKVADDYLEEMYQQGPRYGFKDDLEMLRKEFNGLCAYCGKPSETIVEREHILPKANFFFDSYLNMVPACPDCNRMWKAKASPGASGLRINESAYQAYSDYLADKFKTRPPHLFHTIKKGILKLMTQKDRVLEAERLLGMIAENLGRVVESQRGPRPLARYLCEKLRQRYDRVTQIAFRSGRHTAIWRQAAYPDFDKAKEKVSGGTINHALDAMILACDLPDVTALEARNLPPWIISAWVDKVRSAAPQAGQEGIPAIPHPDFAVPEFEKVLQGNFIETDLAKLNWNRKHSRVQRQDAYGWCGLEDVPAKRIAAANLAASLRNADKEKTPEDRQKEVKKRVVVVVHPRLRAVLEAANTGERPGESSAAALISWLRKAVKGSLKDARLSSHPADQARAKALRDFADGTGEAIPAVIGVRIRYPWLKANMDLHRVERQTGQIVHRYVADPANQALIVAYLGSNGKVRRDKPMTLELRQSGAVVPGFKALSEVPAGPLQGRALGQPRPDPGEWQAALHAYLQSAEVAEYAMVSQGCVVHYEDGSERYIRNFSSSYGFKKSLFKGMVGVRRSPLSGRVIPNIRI
Experimental: Approximately 16 hours prior to transfection, 25,000 HEK293T cells in DMEM/10% FBS+Pen/Strep (D10 media) were plated into each well of a 96-well plate. On the day of transfection, the cells were 50-90% confluent. For each well to be transfected, a mixture of Lipofectamine 2000™ (ThermoFisher Scientific) and Opti-MEM™ (ThermoFisher Scientific) was prepared and incubated at room temperature for 5 minutes (Solution 1). After incubation, the Lipofectamine 2000™:Opti-MEM™ mixture was added to a separate mixture containing the CRISPR nuclease plasmid (NLS-tagged), RNA guide plasmid, and Opti-MEM™ (Solution 2). In the case of negative controls, the CRISPR nuclease plasmid was excluded. Solutions 1 and 2 were mixed by pipetting up and down, then incubated at room temperature for 25 minutes. Following incubation, the Solution 1 and 2 mixture was added dropwise to each well of a 96-well plate containing the cells. Approximately 72 hours post transfection, cells were trypsinized by adding TrypLE™ (Thermo Fisher Scientific) to the center of each well and incubating at 37° C. for approximately 5 minutes. D10 media was then added to each well and mixed to resuspend cells. […]
Cells were transfected, and samples were prepared for NGS as described in Example 1. Indel ratios, referring to the percentage of NGS reads comprising indels, were calculated for the reference and for each variant. […]

Nuclease H = molecular target: T2, Nuclease H (synthetic construct); test: cell_activity; HEK293T; PAM AAC 3'; Table 16 SEQ IDs shifted, guide taken from Table 15; conditions: tags: N-term SV40 NLS, XTEN linker + C-term nucleoplasmin NLS
T2 chain: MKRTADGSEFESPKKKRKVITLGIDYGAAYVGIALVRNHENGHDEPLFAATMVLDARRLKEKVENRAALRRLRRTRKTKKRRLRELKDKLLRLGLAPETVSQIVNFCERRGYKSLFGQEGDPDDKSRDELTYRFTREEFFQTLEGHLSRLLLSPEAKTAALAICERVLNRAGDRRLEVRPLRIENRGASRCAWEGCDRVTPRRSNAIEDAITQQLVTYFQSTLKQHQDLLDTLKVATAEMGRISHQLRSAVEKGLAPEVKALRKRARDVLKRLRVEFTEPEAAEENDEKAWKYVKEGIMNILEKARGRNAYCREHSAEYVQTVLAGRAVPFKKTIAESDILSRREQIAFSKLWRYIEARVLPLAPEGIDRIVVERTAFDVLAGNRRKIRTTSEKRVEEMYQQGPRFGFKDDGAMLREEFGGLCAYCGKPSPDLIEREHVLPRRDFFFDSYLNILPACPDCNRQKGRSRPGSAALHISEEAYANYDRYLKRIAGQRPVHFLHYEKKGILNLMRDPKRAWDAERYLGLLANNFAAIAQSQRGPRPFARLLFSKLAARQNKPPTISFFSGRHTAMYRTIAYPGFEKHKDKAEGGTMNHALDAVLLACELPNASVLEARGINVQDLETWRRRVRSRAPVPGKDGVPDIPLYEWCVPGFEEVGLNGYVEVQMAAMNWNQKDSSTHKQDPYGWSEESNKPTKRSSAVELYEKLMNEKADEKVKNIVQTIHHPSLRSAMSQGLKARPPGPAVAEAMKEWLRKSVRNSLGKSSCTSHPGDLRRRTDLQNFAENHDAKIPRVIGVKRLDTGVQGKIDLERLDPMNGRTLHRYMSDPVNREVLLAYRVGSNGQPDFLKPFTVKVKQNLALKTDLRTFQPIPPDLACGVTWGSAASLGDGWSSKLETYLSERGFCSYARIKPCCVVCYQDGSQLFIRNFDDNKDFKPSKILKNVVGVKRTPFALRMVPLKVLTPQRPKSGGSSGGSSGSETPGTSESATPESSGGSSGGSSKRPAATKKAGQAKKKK

B1: W EMX1-T5 RNA guide ; EMX1-T5 target (W) (ssRNA ; dsDNA)
RNA: UAAACUACAGUGGUGCCUGGGUUUCAGCUACCCUGAGUUUCUCAACUCCGUUGAGACUUCCUCAGGUUCAAGCUGAAAAGAGCAUCUGUCCGGAAGGACCACUCCGGGUUAGGGCAGACCCGGCUCUUGGGCUUCCUUGGUCUUUGACUCUGGAGGAAACCUUCCGGCGUGUCGCAAGACAAGAUGUGAGCCUG
DNA 1: TAAACTACAGTGGTGCCTGG
DNA 2: CCAGGCACCACTGTAGTTTA
Nuclease W E715R
  fold change in indel ratio vs reference: 3.94 fold indel vs reference

B2: H AAVS1-T5 RNA guide ; AAVS1-T5 target (H) (ssRNA ; dsDNA)
RNA: GGCUAUAAUCCAUGCUGACCGUUUCAAUCAACCUGAUCUCUCUGCUUGCGCUGCAGGCUUCAUAAGAUCAGUAGGUUGAAAAGAGCAUCCGUCCGACAUGCACUCCGGGAUGGGGCAGUCCCGGCUCUUGCGGUUCCCGAUGCAGUUAUGUGUCCGCGGAACACGGUGUCGGACACGUCGCAAGACAGGAUGUGAGCCCAUUAUCCACAUUAGGAUCAAUGUACGCAUGAGCAGUCCGCAAUGCCGGGGACGCU
DNA 1: GGCTATAATCCATGCTGACC
DNA 2: GGTCAGCATGGATTATAGCC
Nuclease H
  activity: 0.0105 indel ratio
